# Experimental data: the RNAGym collection of RNA variant scans (doi:10.1073/pnas.2313332121)
# Fewer inactive variants are shown than the library holds.
# B1: TPR 5TU (parent)
# chain: GGAUCUUCUCGAUCUAACAAAAAAGACAAAUCUGCCACAAAGCUUGAGAGCAUCUUCGGAUGCAGAGGCGGCAGCCUUCGGUGGCGCGAUAGCGCCAACGUUCUCAACUAUGACACGCAAAACGCGUGCUCCGUUGAAUGGAGUUUAUCAUG
# Variants of: B1
# Assay: polymerase ribozyme fitness, log enrichment relative to wild type (log ratio); higher = more active; in vitro selection for triplet polymerase activity
# Procedure, shortened: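 For each subunit of a heterodimeric triplet polymerase ribozyme, a mutant library was built by PCR and transcribed, then taken through a single in vitro selection round in triplicate. Selection involved annealing to a biotinylated primer, the partner subunit and triplets, incubation frozen at −7 °C, gel excision of extended constructs, capture on streptavidin beads and RT-PCR. Genotypes were retained after Illumina sequencing of inputs and outputs only with ≥10 input reads and ≥1 read in each output. Fitness is defined as the logarithm of a genotype's enrichment relative to wild-type enrichment, using inverse-variance-weighted averages across replicates, with the logarithm taken to base 2.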
row,Variant,polymerase ribozyme fitness (log ratio)
1,GGAUCUUCUCGAUCUAACAAAAAAGACAAAUCUGCCACAAAGCUUGAGAGCAUCUUCGGAUGCAGAGGCGGCAGCCUUCGCUGACGCGAUAGCGCCAACGUUCUCAACUAUGACCCGCAAAACGCGUGCUCCUUUGAAUGGAGUUUAUUAUG [G81C G84A A115C G133U C149U],≤ -4.2
2,GGAUCUUCUCGAUCUAACAAAAAAGACAAAUCUGCCACAAAGCUUGAGAGCAUCUUCGGAUGCAGAGGCGGCAGCCUUCGGAGGCGCGAUAGUGCCAACGUUCUCAACUAUGACACGCUAAACGCGGGCUCCGUUGAAUGGACUUUAUCAUG [U82A C93U A119U U127G G143C],-4.06
3,GGAUCUUCUCGAUCUAACAAAAAAGACAAAUCUGCCACAAAGCUUGAGAGCAUCUUCGGAUGCAGAGGCGGCAGCCUUCGCUGGCGCGAUAGCGCCAACGUUCUCAACUAUGACACGCAAAACGCGUGCUCCGUCGAAUGGAGUUUAUCAUG [G81C U135C],-2.22
4,GGAUCUUCUCGAUCUAACAAAAAAGACAAAUCUGCCACAAAGCUUGAGAGCAUCUUCGGAUGCAGAGGCGGCAGCCUUCGGAGGCGCGAUAGCGCCAACGUUCUCAACUAUGACACGCAAAACGCAUGCUCCCUUGAAUGGAGUUUAUCAUG [U82A G126A G133C],-1.01
5,GGAUCUUCUCGAUCUAACAAAAAAGACAAAUCUGCCACAAAGCUUGAGAGCAUCUUCGGAUGCAGAGGCGGCAGCCUUCGGAGGCGCGAUAGCGCCAACGUUCUCAACUAUGACACGUAAAACGCGUGCUCCGUUGAAUGGAGUUUAUCAUG [U82A C118U],-0.0134
6,GGAUCUUCUCGAUCUAACAAAAAAGACAAAUCUGCCACAAAGCUUGAGAGCAUCUUCGGAUGCAGAGGCGGCAGCCUUCGCUUGCGCGAUAGCGCCAACGUUCUCAACUAUGACACGCAAAACGCGUGCUCCAUUGAAUGGAGUUUAUCAUG [G81C G83U G133A],-3.88
7,GGAUCUUCUCGAUCUAACAAAAAAGACAAAUCUGCCACAAAGCUUGAGAGCAUCUUCGGAUGCAGAGGCGGCAGCCUUCGGAGGCGCGAUAGCGCCAACGUUCUCAACUAUGCCACUCAAAACGCGUGCUCCGUUGAAUGCAGUUUAUCAUG [U82A A113C G117U G141C],≤ -4.2
8,GGAUCUUCUCGAUCUAACAAAAAAGACAAAUCUGCCACAAAGCUUGAGAGCAUCUUCGGAUGCAGAGGCGGCAGCCUUCGGAGGCGCGAUAGCGCCAAAGUUCUCAACUAUGACACGUAAAACGCGUGCUCCGUUGAAUGGAGUUUAUCAUG [U82A C99A C118U],-1.42
9,GGAUCUUCUCGAUCUAACAAAAAAGACAAAUCUGCCACAAAGCUUGAGAGCAUCUUCGGAUGCAGAGGCGGCAGCCUUCGGCGGCGCGAUAGCGCAAACGUUCUCAACUAUGACACGCAAAACGCGUGCUCCGUUGAAUGGAGUUUAUCAUG [U82C C96A],-0.964
10,GGAUCUUCUCGAUCUAACAAAAAAGACAAAUCUGCCACAAAGCUUGAGAGCAUCUUCGGAUGCAGAGGCGGCAGCCUUCGUUGGCGAGAUAGCGCCAACGUUCUCAGCUAUGACACGCAAAACGCGUGCUCCGUUGAAUGGAGGUUAUCAUG [G81U C87A A107G U144G],≤ -4.2
11,GGAUCUUCUCGAUCUAACAAAAAAGACAAAUCUGCCACAAAGCUUGAGAGCAUCUUCGGAUGCAGAGGCGGCAGCCUUCGUUGGCGCGAUAGCGCCUACGUUCUUAACUAUGACACGCAAAACGCGUGCUCCGUUGAAUGGAGUUUAUCAUG [G81U A97U C105U],0.976
12,GGAUCUUCUCGAUCUAACAAAAAAGACAAAUCUGCCACAAAGCUUGAGAGCAUCUUCGGAUGCAGAGGCGGCAGCCUUCGUUGGCGCGAUACCGCCAACGUUCUCAACUAUGACAAGCAAAACGCGUGCUCCCUUGAAUGGAGUUUAUCAUG [G81U G92C C116A G133C],-3.35
13,GGAUCUUCUCGAUCUAACAAAAAAGACAAAUCUGCCACAAAGCUUGAGAGCAUCUUCGGAUGCAGAGGCGGCAGCCUUCGCUGGCGCGAUAGCGCCAACGUUCUCAACUAUGACACGCUAAACGCGUUCUCCGUUGAAUGGAGUUUAUCAUG [G81C A119U G128U],-2.99
14,GGAUCUUCUCGAUCUAACAAAAAAGACAAAUCUGCCACAAAGCUUGAGAGCAUCUUCGGAUGCAGAGGCGGCAGCCUUCGCUGGCGCGAUAGCACCAACGUUCUCAACUAUGACACGCAAAACGCGUGCUCCGUUGAAUGGAGUUUAUCAUG [G81C G94A],-0.416
15,GGAUCUUCUCGAUCUAACAAAAAAGACAAAUCUGCCACAAAGCUUGAGAGCAUCUUCGGAUGCAGAGGCGGCAGCCUUCGGCGGCGCGUUAGCGCCAACGUUCUCAACUAUGACACGCAAAACGCGUGCUCCGUUGAAUGGAGUUUAUCAUG [U82C A89U],-0.15
16,GGAUCUUCUCGAUCUAACAAAAAAGACAAAUCUGCCACAAAGCUUGAGAGCAUCUUCGGAUGCAGAGGCGGCAGCCUUCGCUGGCGCGAUAGCGCCAACGUUCUCAACUAUGACACGCAGAACGCGUGCUCCGUUGAAUGGAGUUUAUCAUG [G81C A120G],-0.127
17,GGAUCUUCUCGAUCUAACAAAAAAGACAAAUCUGCCACAAAGCUUGAGAGCAUCUUCGGAUGCAGAGGCGGCAGCCUUCGGCGGCGCGAUAGCGGCAACGUUCUCAACUAUGACACGCAAAACGCGUGCUCCGUUGAAUGGAGUUUACCAUG [U82C C95G U148C],-4.02
18,GGAUCUUCUCGAUCUAACAAAAAAGACAAAUCUGCCACAAAGCUUGAGAGCAUCUUCGGAUGCAGAGGCGGCAGCCUUCGUUGGGGCGCUAGGGCCAACGUUCUCAACUAUGACACGCAAAACGCGUGCUCCGUUGAAUGGAGUUUAUCAUG [G81U C85G A89C C93G],≤ -4.2
19,GGAUCUUCUCGAUCUAACAAAAAAGACAAAUCUGCCACAAAGCUUGAGAGCAUCUUCGGAUGCAGAGGCGGCAGCCUUCGCUGUCGCGAUAGCGCCAACGUUCUCAACUAUGACACGCAAAACGCGUGCUCCGUUGAAUGGAGUUUAUCAUG [G81C G84U],-2.44

row,Variant,polymerase ribozyme fitness (log ratio)
1,GGAUCUUCUCGAUCUAACAAAAAAGACAAAUCUGCCACAAAGCUUGAGAGCAUCUUCGGAUGCAGAGGCGGCAGCCUUCGUCGGCGCGAUAGCGUCAACGUUCUCAACUAUGACACGCAUAACGCGUGCUCCGUUGAAUGGAGUUUAUCAUG [G81U U82C C95U A120U],-0.64
2,GGAUCUUCUCGAUCUAACAAAAAAGACAAAUCUGCCACAAAGCUUGAGAGCAUCUUCGGAUGCAGAGGCGGCAGCCUUCGCUGGUGCGUUAGCGCCAACGUUCUCAACUAUGACACGCAAAACGCGUGCUCCGUUGAAUGGGGUUUAUCAUG [G81C C85U A89U A142G],-1.67
3,GGAUCUUCUCGAUCUAACAAAAAAGACAAAUCUGCCACAAAGCUUGAGAGCAUCUUCGGAUGCAGAGGCGGCAGCCUUCGGCGGCGCGAUAGCGCCAACGUUCUCAACUAUGACGCGCAAAACGCGUGCUCCGUUGAUUGGAGUUUAUCAUG [U82C A115G A138U],-4.19
4,GGAUCUUCUCGAUCUAACAAAAAAGACAAAUCUGCCACAAAGCUUGAGAGCAUCUUCGGAUGCAGAGGCGGCAGCCUUCGCUGGCGAGAUAGCGCCAAGGUUCUCAACUAUGACACGCAAAACGCGUGCUCCGUUGAAUGGAGUUUAUCAUG [G81C C87A C99G],≤ -4.2
5,GGAUCUUCUCGAUCUAACAAAAAAGACAAAUCUGCCACAAAGCUUGAGAGCAUCUUCGGAUGCAGAGGCGGCAGCCUUCGUUGGUGCGAUAGCGCCAACGUUCUCAACUAUGACACGCAAAACGCGUGCUCCGUUGAAUGGAGUUUAUCAUG [G81U C85U],-0.466
6,GGAUCUUCUCGAUCUAACAAAAAAGACAAAUCUGCCACAAAGCUUGAGAGCAUCUUCGGAUGCAGAGGCGGCAGCCUUCGGAGGCGCGAUAGGGCCAACGUUCUCAACUAUGACACGCAAAACGCUUGCUCCGUUGAAUGGAGUUUAUCAUG [U82A C93G G126U],-2.84
7,GGAUCUUCUCGAUCUAACAAAAAAGACAAAUCUGCCACAAAGCUUGAGAGCAUCUUCGGAUGCAGAGGCGGCAGCCUUCGCUGGCGCGAUAGCGCCAACGUCCUCAACUAUGACACGCAAAACGCGUGCUCCGUUGAAUGGAGUUUGUCAUG [G81C U102C A147G],-3.21
8,GGAUCUUCUCGAUCUAACAAAAAAGACAAAUCUGCCACAAAGCUUGAGAGCAUCUUCGGAUGCAGAGGCGGCAGCCUUCGUUGUCGCGAUAGCGCCAACGUUCUCAACUAUGACACGCAAAACGCGUGCUCCGUUGAAUGGAGUUUAUCAUG [G81U G84U],-2.19
9,GGAUCUUCUCGAUCUAACAAAAAAGACAAAUCUGCCACAAAGCUUGAGAGCAUCUUCGGAUGCAGAGGCGGCAGCCUUCGGAGGCGCGAUAGCGGCAACGUUCUCAACUAUGACACGUAAAACGCCUGCUCCGUUGAAUGGAGUUUAUCAUG [U82A C95G C118U G126C],-2.5
10,GGAUCUUCUCGAUCUAACAAAAAAGACAAAUCUGCCACAAAGCUUGAGAGCAUCUUCGGAUGCAGAGGCGGCAGCCUUCGGCGGCGCGAUAGCGCGAACGUUCUCAACUAUGACACGCAUAACGCGGGCUCCGUUGAAUGGAGUUUAUCAUG [U82C C96G A120U U127G],-2.72
11,GGAUCUUCUCGAUCUAACAAAAAAGACAAAUCUGCCACAAAGCUUGAGAGCAUCUUCGGAUGCAGAGGCGGCAGCCUUCGGACGCGCGAUAGCGCCAACGUUCUCAACUAUGACACGCAAAAUGCGUGCUCCGUUGAAUGGAGUUUAUCAUG [U82A G83C C123U],-1.12
12,GGAUCUUCUCGAUCUAACAAAAAAGACAAAUCUGCCACAAAGCUUGAGAGCAUCUUCGGAUGCAGAGGCGGCAGCCUUCGCUGGCGCGAUAACGCCAACGUUCUCAACUAUGACACGCAAAACGCGUGCUCCGUUGAAUGGAGUUUAUCAUG [G81C G92A],-3.5
13,GGAUCUUCUCGAUCUAACAAAAAAGACAAAUCUGCCACAAAGCUUGAGAGCAUCUUCGGAUGCAGAGGCGGCAGCCUUCGGCGGCGCGAUAGCGACAACGUUCUCAACUAUGACACGCAAAACGCGUGCUCCGUUGAAUGGAGUUUAUCAUG [U82C C95A],-1.46
14,GGAUCUUCUCGAUCUAACAAAAAAGACAAAUCUGCCACAAAGCUUGAGAGCAUCUUCGGAUGCAGAGGCGGCAGCCUUCGCUGGCGCGAUAGCGCCAACGUUCUCAACUAUGACACCCAAAACGCGUGCUCCGUUGAGUGGAGUUUAUCAUG [G81C G117C A138G],-4.02
15,GGAUCUUCUCGAUCUAACAAAAAAGACAAAUCUGCCACAAAGCUUGAGAGCAUCUUCGGAUGCAGAGGCGGCAGCCUUCGGCGGCGCGAUAGCGCCAACGUUCUCAACUAUUACACGCAAAACGCGUGCUCCGUUGAAUGGAGUUUAUCAUA [U82C G112U G152A],-3.59
16,GGAUCUUCUCGAUCUAACAAAAAAGACAAAUCUGCCACAAAGCUUGAGAGCAUCUUCGGAUGCAGAGGCGGCAGCCUUCGGCGGCGCGAUAGCGCCAACGUUCUCAACUAUGACGCGCAAAACGCGUGCUCCGUUGAAUGGAGUUUAUCAUG [U82C A115G],-0.965
17,GGAUCUUCUCGAUCUAACAAAAAAGACAAAUCUGCCACAAAGCUUGAGAGCAUCUUCGGAUGCAGAGGCGGCAGCCUUCGGCGGCGCGAUAGCGCCAACGUUCGCAACUAUGACACUCAAAACGCGUGCUCCGUUGAAUGGAGUUUAUCAUG [U82C U104G G117U],0.147
18,GGAUCUUCUCGAUCUAACAAAAAAGACAAAUCUGCCACAAAGCUUGAGAGCAUCUUCGGAUGCAGAGGCGGCAGCCUUCGUAGGCGCGAUAACGCCAACGUUCUCAACUAUGACACGCAAAACGCGUGCUCCGUUGAAUGGAGUUUAUCAUU [G81U U82A G92A G152U],≤ -4.2
19,GGAUCUUCUCGAUCUAACAAAAAAGACAAAUCUGCCACAAAGCUUGAGAGCAUCUUCGGAUGCAGAGGCGGCAGCCUUCGGAGGCGCGAUAGUGCCAACGUUCUCAACUAUGACACGCAAAACGCGUGCUCCGUUGAAUGGAGUGUAUCAUG [U82A C93U U145G],-2.53
